The values below come from the Immune Epitope Database (IEDB).

A word on the Kd: it is the free concentration of one partner at which half of the binding sites on the other are occupied at equilibrium, for simple one-to-one binding.

Common to all, as to test: IEDB peptide-MHC binding, purified MHC/competitive/radioactivity; filed as Kd, often an IC50 or EC50 that approximates it; ≥ and ≤ were set here for values at or beyond the usual limits of such assays
Test [1] has as its target HLA-A*03:01.
Test [2] concerns the target HLA-A*11:01.
Test [3] deals with HLA-A*31:01.
Test [4] addresses HLA-A*33:01.
The target of test [5] is HLA-A*68:01.
Where [6] appears, read: source organism: SARS coronavirus Tor2.
Setting [7] is: source organism: Lymphocytic choriomeningitis virus (strain Armstrong).
Where [8] appears, read: source organism: Dengue virus 2 Jamaica/1409/1983.
[9] abbreviates: source organism: Dengue virus 4 Philippines/H241/1956.
[10] abbreviates: source organism: Mammarenavirus guanaritoense.
The mark [11] stands for this setting: source organism: Vaccinia virus WR.
Where [12] appears, read: source organism: Dengue virus 1 Brazil/97-11/1997.
[13] abbreviates: source organism: Dengue virus 3 Martinique/1243/1999.
Where [14] appears, read: source organism: Triticum aestivum.

Consider GVIRSIFAR, for which the Kd in test [1] (setting [6]) amounted to 1300 nM; in test [2] (setting [6]) it was 0.618 nM; in test [3] (setting [6]), 1.02 nM; in test [4] (setting [6]), 118 nM; in test [5] (setting [6]), 0.519 nM.

Turning to TLYICDKQSH, the Kd in test [1] (setting [7]) was 15100 nM; in test [2] (setting [7]) it was at least 47800 nM; in test [3] (setting [7]), at least 34300 nM; in test [4] (setting [7]), at least 70000 nM; in test [5] (setting [7]) it was at least 70100 nM.

For ALRGLPIRY, the dissociation constant (Kd) in test [1] (setting [8]) came out at 52.8 nM.

On to RVSTPQGLVK, for which the Kd in test [1] (setting [9]) was 5.93 nM; in test [2] (setting [9]), 54.2 nM.

Regarding ACNKIKGKK, the Kd in test [1] (setting [10]) turned out to be 1390 nM; in test [2] (setting [10]) it was 19000 nM; in test [3] (setting [10]) it was 1840 nM; in test [4] (setting [10]) it was 664 nM; in test [5] (setting [10]), 1010 nM.

As for EQNLTDTNFK, the Kd in test [1] (setting [11]) is 17900 nM; in test [2] (setting [11]), 1250 nM; in test [3] (setting [11]) it was at least 70000 nM; in test [4] (setting [11]), at least 60600 nM; in test [5] (setting [11]) it was 681 nM.

For the sequence NFLRSIAMLK, the dissociation constant (Kd) in test [1] (setting [11]) was found to be 74.6 nM; in test [2] (setting [11]), 316 nM; in test [3] (setting [11]), 9.91 nM; in test [4] (setting [11]), 70 nM; in test [5] (setting [11]), 272 nM.

As for NYLDYMTSMK, the Kd in test [4] (setting [12]) was found to be 173 nM.

Consider ELGELIGVNY, for which the Kd is at least 70100 nM in test [1] (setting [11]); at least 69800 nM in test [2] (setting [11]); at least 70000 nM in test [3] (setting [11]); at least 70000 nM in test [4] (setting [11]); at least 37600 nM in test [5] (setting [11]).

On to MLVTPSMAMR, for which the Kd in test [3] (setting [12]) was at least 51700 nM; in test [4] (setting [12]), 34.6 nM; in test [5] (setting [12]) it was 32 nM.

Take AQALNTLVK: the Kd in test [1] (setting [6]) is 247 nM; in test [2] (setting [6]), 15.9 nM; in test [3] (setting [6]) it was 3640 nM; in test [4] (setting [6]) it was at least 28700 nM; in test [5] (setting [6]), 1630 nM.

EYRLKGESR: the Kd in test [4] (setting [13]) stood at 18.6 nM.

As to MAVEVGSIR, the Kd in test [1] (setting [11]) is at least 78000 nM; in test [2] (setting [11]) it was 39.5 nM; in test [3] (setting [11]), 279 nM; in test [4] (setting [11]) it was 245 nM; in test [5] (setting [11]) it was 1.36 nM.

Regarding IMNLEMIDER, the Kd in test [1] (setting [11]) was at least 70100 nM; in test [2] (setting [11]) it was 19200 nM; in test [3] (setting [11]), 1280 nM; in test [4] (setting [11]), 1560 nM; in test [5] (setting [11]) it was 3610 nM.

Consider LFLEEMLRTR, for which the Kd in test [3] (setting [8]) came to 732 nM; in test [4] (setting [8]), 685 nM.

SMASLKSLY: the Kd stood at 1.21 nM in test [1] (setting [11]); 38.4 nM in test [2] (setting [11]); 692 nM in test [3] (setting [11]); 16100 nM in test [4] (setting [11]); 26.5 nM in test [5] (setting [11]).

As to AMSFDGFIR, the Kd came to 9600 nM in test [1] (setting [11]); 327 nM in test [2] (setting [11]); 71.8 nM in test [3] (setting [11]); 3150 nM in test [4] (setting [11]); 898 nM in test [5] (setting [11]).

Consider QQQQQQQQQK, for which the Kd in test [1] (setting [14]) is 11200 nM; in test [2] (setting [14]), 4840 nM; in test [3] (setting [14]) it was at least 23200 nM; in test [4] (setting [14]) it was at least 70000 nM; in test [5] (setting [14]) it was at least 46700 nM.

As for IMFEQYFIY, the Kd is 3.67 nM in test [1] (setting [11]); at least 77900 nM in test [2] (setting [11]); 229 nM in test [3] (setting [11]); 3260 nM in test [4] (setting [11]); 205 nM in test [5] (setting [11]).

Regarding LLSCIRNASK, the Kd turned out to be 66.2 nM in test [1] (setting [11]); 29.3 nM in test [2] (setting [11]); 822 nM in test [3] (setting [11]); 16700 nM in test [4] (setting [11]); 195 nM in test [5] (setting [11]).

Consider RMLNILNGR, for which, in test [3] (setting [9]), the dissociation constant (Kd) was 1.16 nM.

For KIAPGIADIR, the Kd in test [1] (setting [11]) was 1660 nM; in test [2] (setting [11]), 4510 nM; in test [3] (setting [11]), 355 nM; in test [4] (setting [11]), at least 53900 nM; in test [5] (setting [11]), 5400 nM.

Consider RLVEEFFNR, for which the Kd in test [1] (setting [11]) was determined as 21.2 nM; in test [2] (setting [11]), 88.1 nM; in test [3] (setting [11]) it was 1.39 nM; in test [4] (setting [11]) it was 796 nM; in test [5] (setting [11]), 29.4 nM.

As to YLALIATFK, the Kd was determined as 4.7 nM in test [1] (setting [13]) and 31.8 nM in test [5] (setting [13]).

For DFKEFASGR, in test [4] (setting [9]), the Kd came to 2.23 nM.

As for ESLLKETIQK, the Kd in test [1] (setting [11]) worked out at 26.7 nM; in test [2] (setting [11]), 9.74 nM; in test [3] (setting [11]), 13200 nM; in test [4] (setting [11]), 14800 nM; in test [5] (setting [11]) it was 332 nM.

As for TAMAFHLSTR, the values for the Kd in test [3] (setting [9]), in test [4] (setting [9]) and in test [5] (setting [9]) were 34.3 nM, 16.7 nM and 8.51 nM, respectively.

As for FTDPSSVAAR, the Kd in test [5] (setting [9]) stood at 67.7 nM.

Regarding QLEDSEYLFR, the Kd in test [1] (setting [11]) was 376 nM; in test [2] (setting [11]), 79.1 nM; in test [3] (setting [11]), 182 nM; in test [4] (setting [11]), 40 nM; in test [5] (setting [11]), 90.9 nM.
